Reference: article PMC2890305 (Chemical biology & drug design, 2010)
Blank lines part the entries; values can stand above or below the molecule they belong to. Where a SMILES comes first, the peptide text is derived from it. Bridges are numbered along the chain shown (N, C = ends). Where no end group is shown, it is not given here.

How the values were obtained:
Aminopeptidase N (APN) = molecular target: T1, Aminopeptidase N (APN) (Rattus norvegicus, UniProt P15684); assay: Inhibition of APN aminopeptidase activity, increasing peptide concentrations; assay type: biochemical
T1 sequence (P15684 33-965 limits assumed): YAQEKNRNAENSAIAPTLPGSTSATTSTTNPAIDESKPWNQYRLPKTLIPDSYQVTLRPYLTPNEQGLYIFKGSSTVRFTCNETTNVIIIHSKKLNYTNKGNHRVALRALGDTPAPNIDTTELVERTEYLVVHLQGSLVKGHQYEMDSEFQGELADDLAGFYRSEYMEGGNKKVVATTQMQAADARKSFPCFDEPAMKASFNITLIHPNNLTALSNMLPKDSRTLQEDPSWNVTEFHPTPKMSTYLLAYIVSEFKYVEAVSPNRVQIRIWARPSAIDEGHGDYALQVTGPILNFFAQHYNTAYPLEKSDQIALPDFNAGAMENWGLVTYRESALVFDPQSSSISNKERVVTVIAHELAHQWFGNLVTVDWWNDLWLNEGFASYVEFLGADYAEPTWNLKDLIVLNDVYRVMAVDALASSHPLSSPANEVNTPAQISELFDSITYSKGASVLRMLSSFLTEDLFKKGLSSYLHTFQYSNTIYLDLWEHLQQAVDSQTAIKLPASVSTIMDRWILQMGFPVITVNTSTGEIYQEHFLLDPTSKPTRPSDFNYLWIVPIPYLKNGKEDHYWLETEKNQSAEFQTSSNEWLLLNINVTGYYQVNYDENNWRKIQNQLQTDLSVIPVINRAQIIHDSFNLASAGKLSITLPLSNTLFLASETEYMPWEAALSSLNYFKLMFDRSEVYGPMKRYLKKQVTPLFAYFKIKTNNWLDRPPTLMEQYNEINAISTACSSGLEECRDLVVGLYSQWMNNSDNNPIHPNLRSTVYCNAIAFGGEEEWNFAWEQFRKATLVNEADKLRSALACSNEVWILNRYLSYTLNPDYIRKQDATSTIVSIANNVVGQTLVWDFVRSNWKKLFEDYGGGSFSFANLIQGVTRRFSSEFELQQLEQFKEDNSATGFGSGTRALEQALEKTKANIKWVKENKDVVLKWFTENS

[1] = system: APN from Aeromonas proteolytica; details: ref [35]; cited from earlier work
[2] = molecular target: the molecule itself; assay: analytical ultracentrifugation
CPNGRC = molecular target: T2, CPNGRC (disulfide 1-6 (inferred)); assay: enzyme inhibition assay
T2 chain: CPNGRC

CNGRC = molecular target: T3, CNGRC (disulfide 1-5 (inferred)); assay: enzyme inhibition assay
T3 chain: CNGRC

APN = molecular target: T4, APN (Rattus norvegicus, UniProt P15684); assay: Analytical ultracentrifugation, sedimentation equilibrium; assay type: binding; details: 3 nM enzyme
T4 sequence (P15684 33-965 limits assumed): T1 sequence (P15684 33-965 limits assumed)

IC50 (Aminopeptidase N (APN)): 10 µM
Molecule: N=C(N)NCCC[C@@H]1NC(=O)CNC(=O)[C@H](CC(N)=O)NC(=O)[C@@H]2CCCN2C(=O)[C@@H](N)CSSC[C@@H](C(=O)O)NC1=O [CPNGRC] (H-CPNGRC-OH; disulfide 1-6)

IC50 (CPNGRC): ~10 µM
IC50 (CNGRC): ~300 µM
B1: Aminopeptidase N (APN/CD13) ECD (protein)
chain: T1 sequence (P15684 33-965 limits assumed)
Kd [2]: 1.6 µM

Further lines, the molecule ahead of its results:

Molecule: CC(C)C[C@H](NC(=O)[C@@H](O)[C@H](N)Cc1ccccc1)C(=O)O [bestatin]
affinity for APN from Aeromonas proteolytica [1]: slow binding nanomolar affinity

B2: APN: Aminopeptidase N isolated from rat renal brush-border membranes, treated with papain to solubilize the extracellular domains (protein, UniProt P15684 33-965, looked up)
extracellular domain: T1 sequence (P15684 33-965 limits assumed)
modifications: extracellular domain papain-solubilized
APN in the dimeric state at assay concentration (APN): less than 0.4%
